T1: human IL-12Rβ2 (human, UniProt Q99665 24-862)
T1 construct: Expressed on HEK293T cells transiently transfected with a pcDNA3 plasmid (Genscript clone OHu21785); also called hIL-12RB2; IL-12 receptor β2 subunit
T1 sequence: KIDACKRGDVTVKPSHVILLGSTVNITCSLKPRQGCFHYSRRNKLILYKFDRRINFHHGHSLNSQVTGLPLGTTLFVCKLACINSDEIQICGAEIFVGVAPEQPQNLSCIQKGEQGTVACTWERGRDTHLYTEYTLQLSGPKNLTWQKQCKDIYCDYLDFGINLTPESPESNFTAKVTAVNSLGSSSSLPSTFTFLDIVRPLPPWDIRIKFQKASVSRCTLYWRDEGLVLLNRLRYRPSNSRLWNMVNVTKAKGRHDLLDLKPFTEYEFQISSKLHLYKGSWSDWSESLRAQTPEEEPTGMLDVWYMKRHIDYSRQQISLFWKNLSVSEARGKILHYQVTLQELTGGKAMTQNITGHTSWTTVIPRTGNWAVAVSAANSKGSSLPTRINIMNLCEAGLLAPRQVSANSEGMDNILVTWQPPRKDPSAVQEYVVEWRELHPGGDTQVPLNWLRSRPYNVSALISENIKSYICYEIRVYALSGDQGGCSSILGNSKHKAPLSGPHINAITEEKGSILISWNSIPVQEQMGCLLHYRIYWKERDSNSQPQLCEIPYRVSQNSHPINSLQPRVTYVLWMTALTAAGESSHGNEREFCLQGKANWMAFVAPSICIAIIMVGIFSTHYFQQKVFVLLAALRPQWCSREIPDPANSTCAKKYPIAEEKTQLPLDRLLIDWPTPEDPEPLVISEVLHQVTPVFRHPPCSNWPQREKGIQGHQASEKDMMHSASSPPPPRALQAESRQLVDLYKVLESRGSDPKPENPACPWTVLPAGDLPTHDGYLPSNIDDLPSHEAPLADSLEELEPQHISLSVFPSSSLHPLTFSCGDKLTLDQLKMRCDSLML

B1: anti-IL-12Rβ2 VHH clone 3CRHS1 (VHH, not shown: small tags and cut ends)
VHH: QVQLQESGGGSVQPGGSLRLSCAASGFTFSTSGMHWFRQAPGKGLEWVSSIGIIVDSSYYASSVKGRFTISRDNAKNTLYLQMNSLKSEDTAVYYCSKDPTGSSRGQGTQVTVSS
notes: periplasmic extract
B2: anti-IL-12Rβ2 VHH clone 3CRH45 (VHH, not shown: small tags and cut ends)
VHH: QVQLQESGGGLVQPGGSLRLSCAASGFTFSTFGMHWFRQAPGKGLEWVSSIGIIDDNSYYASSVKGRFTISRDNAKNTLYLQMNSLKSEDTAVYYCSKDTTGSSRGQGTQVTVSS
notes: periplasmic extract
B3: anti-IL-12Rβ2 VHH clone 3CRHS128 (VHH, not shown: small tags and cut ends)
VHH: QVQLQESGGGLVQPGGSLRLSCAASGFTFSTSGMHWFRQAPGKGLEWVSSIGATVDNSYYASSVKGRFTISRDNAKNTLYLLMNSLKSEDTAVYYCSKDPTGSSRGQGTQVTVSS
notes: periplasmic extract
B4: anti-IL-12Rβ2 VHH clone 3CRH14 (VHH, not shown: small tags and cut ends)
VHH: QVQLQESGGGLVQPGGSLRLSCAASGFTFSTSGMHWFRQAPGKGLEWVSSIGIIVDSSYYADSVKGRFTISRDNAKNTLFLQMNSLKSEDTAVYYCSKDPTGSSRGQGTQVTVSS
notes: periplasmic extract
B5: anti-IL-12Rβ2 VHH clone 2CRH80 (VHH, not shown: small tags and cut ends)
VHH: QVQLQESGGGLVQPGGSLRLSCAASGFTFSTSGMHWFRQAPGKGLEWVSSIGIIVGSSYYASSVKGRFTISRDNAKNTLYLHMNSLKSEDTAVYYCSKDVTGSSRGQGTQVTVSS
notes: periplasmic extract
B6: anti-IL-12Rβ2 VHH clone 3CRH43 (VHH, not shown: small tags and cut ends)
VHH: QVQLQESGGGSVQPGGSLRLSCAASGFTFSTSGMHWFRQAPGKGLEWVSSIGIIVDSSYYASSVKGRFTISRDNAKNIVYLQMNSLKSEDTAVYYCSKDPTGSSRGQGTQVTVSS
notes: periplasmic extract
B7: anti-IL-12Rβ2 VHH clone 3CRHS109 (VHH, not shown: small tags and cut ends)
VHH: QVQLQESGGGLVQPGGSLRLSCAASGFTFSTSGMHWFRQAPGKGLEWVSSIGIIVDSSYYASSVKGRFTISRDNAKNTLYLHMNSLKSEDTAVYYCSKDVTGSSRGQGTQVTVSS
notes: periplasmic extract
B8: anti-IL-12Rβ2 VHH clone 3CRH17 (VHH, not shown: small tags and cut ends)
VHH: QVQLQESGGGLVQAGGSLVLSCAASGSAALIFLMSWYRQAPGKQRELVAEVSRYGSTTYADSVEGRFTISRDNAKNIVDLQMNSLKPEDTAVYYCKADQYYGDSLRSSWGRGTQVTVSS
notes: periplasmic extract
B9: anti-IL-12Rβ2 VHH clone 2CRH53 (VHH, not shown: small tags and cut ends)
VHH: QVQLQESGGGLVQAGGSLVLSCAASGSAALIFLMSWYRQAPGKQRELVAEVSRYGSTTYADSVEGRFTISRDNAKDIVDLQMNSLKPEDTAVYYCKADQYYGDSLRSSWGRGTQVTVSS
notes: periplasmic extract
B10: anti-IL-12Rβ2 VHH clone 2CRH10 (VHH, not shown: small tags and cut ends)
VHH: QVQLQESGGGLVQAGGSLVLSCAASGSAALIFLMSWYRQAPGKQRELVAEVSRGGSTTYADSVEGRFHISRDNAKNIVDLQMNSLKPEDTAVYYCKADQNYGDSLRSSWGRGTQVTVSS
notes: periplasmic extract; also called 20362
B11: anti-IL-12Rβ2 VHH clone 2CRH73 (VHH, not shown: small tags and cut ends)
VHH: QVQLQESGGGLVQAGGSLRLTCTASGSAALIFLMSWYRQAPGKQRELVAEVSRRGSTTYADSVEGRFTISRDNAKNIVDLQMNSLKPEDTAVYYCKADQYYGDSLRSSWGRGTQVTVSS
notes: periplasmic extract
B12: anti-IL-12Rβ2 VHH clone 3CRH5 (VHH, not shown: small tags and cut ends)
VHH: QVQLQESGGGLVQAGGSLVLSCAASGSAALIFLMSWYRQAPGKQRELVAEVSRGGSTTYADSVEGRFTISRDNAKNIVDLQMNSLKPEDTAVYYCKADQNYGDSLRSSWGQGTQVTVSS
notes: periplasmic extract
B13: anti-IL-12Rβ2 VHH clone 3CRHS9 (VHH, not shown: small tags and cut ends)
VHH: QVQLQESGGGLVQPGGSLRLSCTASGSIVSIYNMDWYRQAPGNEREWVASITSSGDPYYDGSAKGRFTISRDNAKMTVYLQMNSLKPEDTAVYYCKVPTEKGNYWGQGTQVTVSS
notes: periplasmic extract
B14: anti-IL-12Rβ2 VHH clone 3CRHS54 (VHH, not shown: small tags and cut ends)
VHH: QVQLQESGGGLVQPGGSLRLSCTASGSIVSIYNMDWYRQAPGNEREWVASITSSGDPYYDGSAKGRFTISRDNAKMTVYLQMNSLEPEDTAVYFCKVPTEKGNYWGQGTQVTVSS
notes: periplasmic extract
B15: anti-IL-12Rβ2 VHH clone 3CRHS100 (VHH, not shown: small tags and cut ends)
VHH: QVQLQESGGGLVQPGGSLRLSCTASGSIFSIYNMDWYRQAPGNQREWVASITPSGDPYYDDSAKGRFTISRDNAKMTVYLQMNSLKPEDTAVYYCKVPTEKGNYWGQGTQVTVSS
notes: periplasmic extract
B16: anti-IL-12Rβ2 VHH clone 3CRHS55 (VHH, not shown: small tags and cut ends)
VHH: QVQLQESGGGLVQAGGSLNLSCTASGSIISIYNMDWYRQAPGNQREWVASITSNGDSYYDGSAKGRFTISRDNAKMTVYLQMNSLKPEDTAVYYCKVPTENGNYWGQGTQVTVSS
notes: periplasmic extract
B17: anti-IL-12Rβ2 VHH clone 3CRHS3 (VHH, not shown: small tags and cut ends)
VHH: QVQLQESGGGLVQPGGSLRLSCTASGSIFSIYNMDWYRQAPGNQREWVASITSSGDPYYDASVKGRFTISRDSAKMTVYLQMNSLKPEDTAVYYCKLPTEKGNYWGQGTQVTVSS
notes: periplasmic extract
B18: anti-IL-12Rβ2 VHH clone 3CRH18 (VHH, not shown: small tags and cut ends)
VHH: QVQLQESGGGLVQPGGSLRLSCTASGNIVSIYNMDWYRQAPGNQREWVASITSSGDPYYDGSAKGRFTISRDNAKMTVYLQMNSLRPEDTAVYYCKVPTEKGNYWGQGTQVTVSS
notes: periplasmic extract
B19: anti-IL-12Rβ2 VHH clone 3CRH68 (VHH, not shown: small tags and cut ends)
VHH: QVQLQESGGGLVQPGGSLRLSCTASGSILSIYNMDWYRQVPGNQREWVASITPSGDPYYDGSVKGRFTISRDNAKMMVYLQMNSLKPEDTAVYYCKVPTEKGNYWGQGTQVTVSS
notes: periplasmic extract
B20: anti-IL-12Rβ2 VHH clone 3CRHS148 (VHH, not shown: small tags and cut ends)
VHH: QVQLQESGGGLVQPGGSLRLSCIASGSIFSIYNMDWYRQAPGNQREWVASITPSGDPYYDDSAKGRFTISRDNAKMTVYLQMNSLKPEDTAVYYCKVPTEKGNYWGQGTQVTVSS
notes: periplasmic extract
B21: anti-IL-12Rβ2 VHH clone 3CRH27 (VHH, not shown: small tags and cut ends)
VHH: QVQLQESGGGLVQAGGSLRLSCTASGSIVSIYNMDWYRQAPGNEREWVASITSSGDPYYDGSAKGRFTISRDNAKMTVYLQMNSLKPEDTAVYYCKVPTEKGNYWGQGTQVTVSS
notes: periplasmic extract
B22: anti-IL-12Rβ2 VHH clone 2CRH33 (VHH, not shown: small tags and cut ends)
VHH: QVQLQESGGGSVQPGWSLRLTCAASGFTFSTSGMHWFRQAPGKGLEWVSSISSGGGDTYYTDSVKGRITISRDNAKNTLYLQLNDLKSEDTAVYYCSKDPSGATRGQGTQVTVSS
notes: periplasmic extract; also called 20363
B23: anti-IL-12Rβ2 VHH clone 2CRH60 (VHH, not shown: small tags and cut ends)
VHH: QVQLQESGGGSVQPGGSLRLTCAASGFTFSTSGMHWFRQAPGKGLEWVSSISSGGGDTYYTDSVKGRITISRDNAKNTLYLQLNDLKSEDTAVYYCSKDPSGATRGQGTQVTVSS
notes: periplasmic extract

These binders were tested against T1, human IL-12Rβ2 (assay: flow cytometry, P.E. on transfected HEK293T cells).
For B1, the “% cells bound” value was 44.5% and the dMFI was 1080.
In the case of B2, the “% cells bound” value is reported as 37.6% and the dMFI is reported as 742.
B3 was tested, and the “% cells bound” value was 50.5% and the dMFI was 1480.
B4 was tested, and the “% cells bound” value was 41.7% and the dMFI was 864.
For B5, the “% cells bound” value was 40.1% and the dMFI was 809.
For B6, the “% cells bound” value was 45.5% and the dMFI was 1160.
B7 was tested, and the “% cells bound” value was 46.5% and the dMFI was 1260.
B8 was tested, and the “% cells bound” value was 32.5% and the dMFI was 583.
For B9, the “% cells bound” value was 35.3% and the dMFI was 686.
B10 was tested, and the “% cells bound” value was 30.8% and the dMFI was 595.
In the case of B11, the “% cells bound” value is reported as 36.7% and the dMFI is reported as 707.
For B12, the “% cells bound” value was 39.5% and the dMFI was 835.
For B13, the “% cells bound” value was 42.1% and the dMFI was 1040.
In the case of B14, the “% cells bound” value is reported as 41.5% and the dMFI is reported as 970.
With B15 the “% cells bound” value was 43.2% and the dMFI was 1130.
B16 was tested, and the “% cells bound” value was 40.5% and the dMFI was 961.
B17 was tested, and the “% cells bound” value was 47.2% and the dMFI was 1320.
With B18 the “% cells bound” value was 41.7% and the dMFI was 918.
B19 was tested, and the “% cells bound” value was 38.2% and the dMFI was 787.
For B20, the “% cells bound” value was 42% and the dMFI was 1030.
For B21, the “% cells bound” value was 38.9% and the dMFI was 812.
With B22 the “% cells bound” value was 44.8% and the dMFI was 1120.
In the case of B23, the “% cells bound” value is reported as 45.3% and the dMFI is reported as 1100.
